{
  "source": "patent US20230242621A1",
  "about": "(VIR BIOTECHNOLOGY, published 2023)",
  "binders": {"B1": {"name": "HBC34-v36 (IgG1 with wild-type Fc, allotype G1m17, 1) (antibody, V domains shown)", "VH": "ELQLVESGGGWVQPGGSQRLSCAASGRIFRSFYMSWVRQAPGKGLEWVATINQDGSEKLYVDSVKGRFTISRDNAKNSLFLQMNNLRVEDTAVYYCAAWSGNSGGMDVWGQGTTVSVSS", "VL": "SYELTQPPSVSVSPGQTVSIPCSGDKLGNKNVAWFQHKPGQSPVLVIYQDSKRPSGIPERFSGSNSGNTATLTISGTQAMDEAAYFCQTFDSTTVVFGGGTRLTVLG", "notes": "also called L-CDR2 GL"}},
  "target": "T1, HBsAg (hepatitis B surface antigen; genotype or subtype not stated in the example) (hepatitis B virus)",
  "T1 chain": "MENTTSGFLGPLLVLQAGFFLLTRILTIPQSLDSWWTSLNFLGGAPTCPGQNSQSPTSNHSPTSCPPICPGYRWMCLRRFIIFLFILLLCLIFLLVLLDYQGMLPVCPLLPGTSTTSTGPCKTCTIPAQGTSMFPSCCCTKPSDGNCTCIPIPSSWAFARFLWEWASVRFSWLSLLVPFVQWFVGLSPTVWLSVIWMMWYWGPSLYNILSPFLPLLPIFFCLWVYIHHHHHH",
  "experiment": "ELISA on HBsAg; IgG1 with wild-type Fc",
  "data": [
    {"binder": "B1", "values": [
      {"measurement": "EC50", "result": 0.7, "unit": "ng/mL"}
    ]}
  ]
}
